B1: tPphA (Thermosynechococcus vestitus BP-1; R13N) (protein)
chain: MDVAGLTDCGLINKSNQDAFYIDEKHQRFFIVADGMGGHAGGEEASRLAVDHIRQYLETHLEDLQHDPVTLLRQAFLAANHAIVEQQRQNSARADMGTTAVVILLDEKGDRAWCAHVGDSRIYRWRKDQLQQITSDHTWIAQAVQLGSLTIEQARQHPWRHVLSQCLGREDLSQIDIQPIDLEPGDRLLLCSDGLTEELTDDVISIYLSEPNVQKAAAALVDAAKTHGGRDNVTVVVISV
B2: tPphA (Thermosynechococcus vestitus BP-1; R13Q) (protein)
chain: MDVAGLTDCGLIQKSNQDAFYIDEKHQRFFIVADGMGGHAGGEEASRLAVDHIRQYLETHLEDLQHDPVTLLRQAFLAANHAIVEQQRQNSARADMGTTAVVILLDEKGDRAWCAHVGDSRIYRWRKDQLQQITSDHTWIAQAVQLGSLTIEQARQHPWRHVLSQCLGREDLSQIDIQPIDLEPGDRLLLCSDGLTEELTDDVISIYLSEPNVQKAAAALVDAAKTHGGRDNVTVVVISV
B3: tPphA (Thermosynechococcus vestitus BP-1; R13Y) (protein)
chain: MDVAGLTDCGLIYKSNQDAFYIDEKHQRFFIVADGMGGHAGGEEASRLAVDHIRQYLETHLEDLQHDPVTLLRQAFLAANHAIVEQQRQNSARADMGTTAVVILLDEKGDRAWCAHVGDSRIYRWRKDQLQQITSDHTWIAQAVQLGSLTIEQARQHPWRHVLSQCLGREDLSQIDIQPIDLEPGDRLLLCSDGLTEELTDDVISIYLSEPNVQKAAAALVDAAKTHGGRDNVTVVVISV
B4: tPphA (Thermosynechococcus vestitus BP-1; R13H) (protein)
chain: MDVAGLTDCGLIHKSNQDAFYIDEKHQRFFIVADGMGGHAGGEEASRLAVDHIRQYLETHLEDLQHDPVTLLRQAFLAANHAIVEQQRQNSARADMGTTAVVILLDEKGDRAWCAHVGDSRIYRWRKDQLQQITSDHTWIAQAVQLGSLTIEQARQHPWRHVLSQCLGREDLSQIDIQPIDLEPGDRLLLCSDGLTEELTDDVISIYLSEPNVQKAAAALVDAAKTHGGRDNVTVVVISV
B5: tPphA (Thermosynechococcus vestitus BP-1; R13A) (protein)
chain: MDVAGLTDCGLIAKSNQDAFYIDEKHQRFFIVADGMGGHAGGEEASRLAVDHIRQYLETHLEDLQHDPVTLLRQAFLAANHAIVEQQRQNSARADMGTTAVVILLDEKGDRAWCAHVGDSRIYRWRKDQLQQITSDHTWIAQAVQLGSLTIEQARQHPWRHVLSQCLGREDLSQIDIQPIDLEPGDRLLLCSDGLTEELTDDVISIYLSEPNVQKAAAALVDAAKTHGGRDNVTVVVISV
B6: tPphA (Thermosynechococcus vestitus BP-1) (protein)
chain: MDVAGLTDCGLIRKSNQDAFYIDEKHQRFFIVADGMGGHAGGEEASRLAVDHIRQYLETHLEDLQHDPVTLLRQAFLAANHAIVEQQRQNSARADMGTTAVVILLDEKGDRAWCAHVGDSRIYRWRKDQLQQITSDHTWIAQAVQLGSLTIEQARQHPWRHVLSQCLGREDLSQIDIQPIDLEPGDRLLLCSDGLTEELTDDVISIYLSEPNVQKAAAALVDAAKTHGGRDNVTVVVISV
B7: tPphA (Thermosynechococcus vestitus BP-1; R13C) (protein)
chain: MDVAGLTDCGLICKSNQDAFYIDEKHQRFFIVADGMGGHAGGEEASRLAVDHIRQYLETHLEDLQHDPVTLLRQAFLAANHAIVEQQRQNSARADMGTTAVVILLDEKGDRAWCAHVGDSRIYRWRKDQLQQITSDHTWIAQAVQLGSLTIEQARQHPWRHVLSQCLGREDLSQIDIQPIDLEPGDRLLLCSDGLTEELTDDVISIYLSEPNVQKAAAALVDAAKTHGGRDNVTVVVISV
B8: tPphA (Thermosynechococcus vestitus BP-1; R13G) (protein)
chain: MDVAGLTDCGLIGKSNQDAFYIDEKHQRFFIVADGMGGHAGGEEASRLAVDHIRQYLETHLEDLQHDPVTLLRQAFLAANHAIVEQQRQNSARADMGTTAVVILLDEKGDRAWCAHVGDSRIYRWRKDQLQQITSDHTWIAQAVQLGSLTIEQARQHPWRHVLSQCLGREDLSQIDIQPIDLEPGDRLLLCSDGLTEELTDDVISIYLSEPNVQKAAAALVDAAKTHGGRDNVTVVVISV
B9: tPphA (Thermosynechococcus vestitus BP-1; R13P) (protein)
chain: MDVAGLTDCGLIPKSNQDAFYIDEKHQRFFIVADGMGGHAGGEEASRLAVDHIRQYLETHLEDLQHDPVTLLRQAFLAANHAIVEQQRQNSARADMGTTAVVILLDEKGDRAWCAHVGDSRIYRWRKDQLQQITSDHTWIAQAVQLGSLTIEQARQHPWRHVLSQCLGREDLSQIDIQPIDLEPGDRLLLCSDGLTEELTDDVISIYLSEPNVQKAAAALVDAAKTHGGRDNVTVVVISV
B10: tPphA (Thermosynechococcus vestitus BP-1; R13S) (protein)
chain: MDVAGLTDCGLISKSNQDAFYIDEKHQRFFIVADGMGGHAGGEEASRLAVDHIRQYLETHLEDLQHDPVTLLRQAFLAANHAIVEQQRQNSARADMGTTAVVILLDEKGDRAWCAHVGDSRIYRWRKDQLQQITSDHTWIAQAVQLGSLTIEQARQHPWRHVLSQCLGREDLSQIDIQPIDLEPGDRLLLCSDGLTEELTDDVISIYLSEPNVQKAAAALVDAAKTHGGRDNVTVVVISV
B11: tPphA (Thermosynechococcus vestitus BP-1; R13K) (protein)
chain: MDVAGLTDCGLIKKSNQDAFYIDEKHQRFFIVADGMGGHAGGEEASRLAVDHIRQYLETHLEDLQHDPVTLLRQAFLAANHAIVEQQRQNSARADMGTTAVVILLDEKGDRAWCAHVGDSRIYRWRKDQLQQITSDHTWIAQAVQLGSLTIEQARQHPWRHVLSQCLGREDLSQIDIQPIDLEPGDRLLLCSDGLTEELTDDVISIYLSEPNVQKAAAALVDAAKTHGGRDNVTVVVISV

Substrate: O=[N+]([O-])c1ccc(OP(=O)(O)O)cc1
Assay: chromogenic phosphatase assay, A400
Type: biochemical, Thermosynechococcus vestitus
Settings: 50 mM Tris-HCl pH 8.3, 50 mM NaCl, 1 mM DTT, 2 mM MnCl2, 30 °C, pNPP 0.1-10 mM
Excerpt: chromogenic phosphatase assay, A400 on tPphA

Row | Protein | Km [mM] | kcat [s⁻¹] | kcat/Km [M⁻¹ s⁻¹]
1 | B1 | 4.73 ± 0.53 | 0.81 ± 0.04 | 171 ± 8
2 | B2 | 4.06 ± 0.21 | 0.5 ± 0.01 | 123 ± 2
3 | B3 | 4.31 ± 0.28 | 0.42 ± 0.01 | 97 ± 2
4 | B4 | 3.30 ± 0.17 | 0.64 ± 0.01 | 194 ± 3
5 | B5 | 5.11 ± 0.23 | 1.56 ± 0.03 | 305 ± 6
6 | B6 | 1.06 ± 0.05 | 2.25 ± 0.1 | 2120 ± 94
7 | B7 | 4.27 ± 0.39 | 0.79 ± 0.01 | 185 ± 2
8 | B8 | 3.58 ± 0.22 | 1.17 ± 0.03 | 327 ± 8
9 | B9 | 4.77 ± 0.17 | 1.01 ± 0.02 | 212 ± 4
10 | B10 | 3.85 ± 0.32 | 1.06 ± 0.04 | 275 ± 10
11 | B11 | 1.39 ± 0.10 | 1.22 ± 0.03 | 878 ± 21

Source: article PMC3375153, “The Role of Arg13 in Protein Phosphatase M tPphA from Thermosynechococcus elongatus” (Enzyme Research, 2012)
